Results reported in patent US20230071609A1 (Genentech, published 2023).

Legend:
[1] = molecular target: T1, APOL1 very C-terminal peptide aa 376-398 (human); test: overlapping ~20-mer peptides (SPR, western blot); antibody named in paragraph 192
T1 peptide: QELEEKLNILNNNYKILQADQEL
Method: Following three TBST washes, anti-mouse (GE Healthcare NA931V, 1:3000) or anti-rabbit HRP (Jackson 711-036-152, 1:8000) was added as secondary antibody. After 1 h, membranes were washed and protein detected using ECL prime (Amersham RPN2232) exposed to MR film (Kodak). Anti-actin HRP-conjugated antibody (clone 13E5, Cell Signaling Technologies 5125S at 1:5000) or calnexin (Abcam Ab22595 at 1:1000) was used as a loading control. For peptide mapping, 2 μl of 1 mM peptides in DMSO were boiled in 5× sample buffer and loaded on 10% Tris-Glycine gel and run using MES buffer. Cell pellets of Sf9 lysates were lysed in native RIPA (NP-40) lysis buffer and run on 10% Tris-Glycine gels.
A 96×96 array-based SPR imaging system (Carterra USA) was used for epitope mapping of anti-ApoL1 monoclonal antibodies. Briefly, purified monoclonal hybridoma antibodies were diluted at 10 μg/ml in 10 mM sodium acetate buffer pH 4.5. Using amine coupling, antibodies were directly immobilized onto a SPR sensorprism CMD 200M chip (XanTec Bioanalytics, Germany) using a Continuous Flow Microspotter (Carterra, USA) to create an array of antibodies. After coupling, the antibodies were blocked with ethanolamine, and primed with running buffer (10 mM HEPES, pH 7.4, 150 mM NaCl, 3 mM EDTA, and 0.005% Tween 20). Epitope mapping was performed by flowing 100 nM of different peptides of APOL1 across the immobilized anti-APOL1 antibodies on the biosensor chip at 25° C. in a running buffer of 10 mM HEPES, pH 7.4, 150 mM NaCl, 3 mM EDTA, and 0.005% Tween 20. After each flow through of the APOL1 peptide, the chip surface was regenerated using 10 mM glycine, pH 2.0.

[2] = molecular target: T2, iAPOL1-G0 in podocytes (EIK variant, doxycycline-inducible, in APOL1 KO podocytes) (human, UniProt O14791 29-398); test: immunoelectron microscopy, APOL1-G0 podocytes
T2 construct: Stably re-expressed untagged APOL1 isoform A in APOL1 KO clone 89401-3; also called iAPOL1-G0 podocytes; iAPOL1 podocytes
T2 chain: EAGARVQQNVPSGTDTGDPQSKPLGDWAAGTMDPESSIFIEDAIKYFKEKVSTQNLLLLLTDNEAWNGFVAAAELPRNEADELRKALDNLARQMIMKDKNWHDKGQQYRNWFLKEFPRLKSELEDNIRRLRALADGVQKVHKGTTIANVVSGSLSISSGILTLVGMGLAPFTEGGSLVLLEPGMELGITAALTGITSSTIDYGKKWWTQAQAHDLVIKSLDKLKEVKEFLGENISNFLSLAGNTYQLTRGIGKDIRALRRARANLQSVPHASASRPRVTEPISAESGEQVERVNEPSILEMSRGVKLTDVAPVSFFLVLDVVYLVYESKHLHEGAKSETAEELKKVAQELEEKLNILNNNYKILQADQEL
Method: Scale bars are 200 nm. APOL1 appears more closely associated with the inner ER membrane face than does the luminal KDEL.
For iEM, 1.4×10⁶ HEK-293 cells in T25 flasks were reverse transfected with 5.4 μg APOL1 or APOL2 cDNA with 12 μl Fugene 6 (Roche 11814443001) for 50 h or 65 h, respectively. Podocytes and transiently transfected HEK-293 cells were fixed with 4% paraformaldehyde in 0.1M phosphate buffer (PB), pH 7.4, for 2 h at room temperature, then overnight at 4° C., and with 2% paraformaldehyde, 0.2% glutaraldehyde in 0.1 M phosphate buffer (PB), pH 7.4, for 2 h at room temperature, respectively. Fixations were continued in 1% PFA in 0.1 M PB at 4° C. for several days. […] For quantitation, random images of APOL1/2 expressing HEK-293 cells and podocytes were made. The positions of at least 50 gold particles per antibody were scored as either (i) OMF: overlapping on outer ER membrane surface and cytosol, or located in the cytosol at a distance ≤15 nm between outer ER membrane surface and the 10 nm gold particle surface; (ii) IMF: overlapping on inner ER membrane surface and ER lumen, or located in the lumen at a distance ≤15 nm between inner ER membrane surface and gold particle surface; or (iii) Lumen: within the ER lumen, with a distance >15 nm between the 10 nm gold particle surface and the nearest inner ER membrane surface. […]

B1: antibody 4.12E5 (antibody, V domains shown)
VH: EVQLQQSGPELVKTGASVKISCKASGYSFTGYFMHWVKQSHGKSLEWIGYISCYNGASVYNQRFKGKATFTIDTSSSTAYMQFNSLTSEDSAVYYCARDVLRYPRYAVDYWGQGTSVTVSS
VL: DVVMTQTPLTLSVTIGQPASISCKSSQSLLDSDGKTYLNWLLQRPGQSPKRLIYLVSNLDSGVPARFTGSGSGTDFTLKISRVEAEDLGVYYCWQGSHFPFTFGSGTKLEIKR
notes: Mouse mAb, cloned as murine IgG2a LALAPG
B1: binds [1].

B2: antibody 3.6E10 (antibody, V domains shown)
VH: QVQLQQSGAELAKPGASVKMSCKASGYIFTSYYLHWVKQRPGQGLEWIGYINPNTGYTEYTQNFKDRATLTADKSSSTAYMQLTSLTSEDSAVYFCVNGNPFVYWGQGTLVTVSA
VL: DIVMTQSPSSLTVTTGEKVTMTCRSSQSLLNSGNQKNYLTWFQQKPGQPPKLLIYWTSTRYSGVPDRFTGSGSGTDFTLTISSVQAEDLAVYYCQNDYSYPLTFGAGTKLEIKR
notes: as for B1
B2: binds [2].
